Data as given in US20180215829A1 (CRESCENDO BIOLOGICS, published 2018).
Where two headings read alike, the source gives them in different places.

What was measured:
[1] = biological target: T1, recombinant human IL-17RA Fc fusion protein (R&D Systems 177-IR-100) (human, UniProt Q96F46 33-320); assay: receptor/ligand biochemical inhibition ELISA: VH competes with 1 nM IL-17A for coated IL-17RA-Fc
T1 construct: Bought protein; not shown: Fc domain of human IgG1
T1 sequence: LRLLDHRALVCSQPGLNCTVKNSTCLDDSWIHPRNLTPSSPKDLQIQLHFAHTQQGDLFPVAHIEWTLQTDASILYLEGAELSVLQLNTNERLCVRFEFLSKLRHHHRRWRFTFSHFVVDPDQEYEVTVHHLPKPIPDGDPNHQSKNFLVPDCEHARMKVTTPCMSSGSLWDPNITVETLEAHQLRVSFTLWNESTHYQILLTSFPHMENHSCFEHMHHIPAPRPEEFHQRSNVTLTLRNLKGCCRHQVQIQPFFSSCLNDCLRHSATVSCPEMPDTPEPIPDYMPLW
Protocol: (§1) VH, both purified and crude periplasmic extracts, were also tested for their ability to inhibit the interaction of IL-17A with recombinant IL-17RA-Fc. […] Following washing of excess coating antigen, as described above, the wells of the plate were incubated with 3% Marvel/PBS to block non-specific protein interactions. VH preparations, crude periplasmic extracts or purified VH, or suitable controls, were prepared with 1 nM recombinant IL-17A (Peprotech, cat# AF-200-17) in 3% skimmed milk powder/PBS solution in polypropylene plates or tubes. The mixture was then transferred to the assay plate and incubated for 1 hour at room temperature. Excess protein was removed by washing and bound IL-17A was detected by incubation with biotinylated anti-IL-17A Mab (R & D Systems, cat BAF317) followed by the addition of neutravidin-HRP (Pierce, cat#31030) and TMB substrate (Sigma, cat# T0440). The TMB reaction was stopped by addition of 0.5M H₂SO₄ and absorbances were measured at 450 nm in a plate reader.

[2] = biological target: T2, human IL-17RA on HT1080 cells (human, UniProt Q96F46 33-866); assay: cell-based or functional assay
T2 sequence: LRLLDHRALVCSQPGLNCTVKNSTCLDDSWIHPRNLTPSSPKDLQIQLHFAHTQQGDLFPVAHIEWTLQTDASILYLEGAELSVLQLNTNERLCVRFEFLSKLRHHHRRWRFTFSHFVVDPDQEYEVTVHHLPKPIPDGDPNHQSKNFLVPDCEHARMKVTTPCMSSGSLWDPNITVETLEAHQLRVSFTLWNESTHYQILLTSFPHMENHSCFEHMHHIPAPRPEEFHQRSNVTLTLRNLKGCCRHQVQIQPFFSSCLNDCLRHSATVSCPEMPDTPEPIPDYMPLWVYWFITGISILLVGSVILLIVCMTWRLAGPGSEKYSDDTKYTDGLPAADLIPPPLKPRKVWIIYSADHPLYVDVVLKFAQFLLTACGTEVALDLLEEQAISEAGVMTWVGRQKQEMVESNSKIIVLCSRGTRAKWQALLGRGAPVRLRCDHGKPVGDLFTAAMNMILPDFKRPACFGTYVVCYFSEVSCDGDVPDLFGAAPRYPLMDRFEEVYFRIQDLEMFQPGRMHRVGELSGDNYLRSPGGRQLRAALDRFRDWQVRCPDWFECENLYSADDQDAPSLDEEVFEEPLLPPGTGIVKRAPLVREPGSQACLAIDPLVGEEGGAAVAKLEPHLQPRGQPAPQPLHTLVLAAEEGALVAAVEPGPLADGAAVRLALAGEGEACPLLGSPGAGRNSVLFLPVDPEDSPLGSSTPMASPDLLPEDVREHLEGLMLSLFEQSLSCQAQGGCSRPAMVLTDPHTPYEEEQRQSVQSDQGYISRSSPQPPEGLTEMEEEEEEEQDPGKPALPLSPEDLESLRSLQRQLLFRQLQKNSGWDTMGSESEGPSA

[3] = biological target: T1, recombinant human IL-17RA Fc fusion …; assay: BIAcore T200 single-cycle kinetics, IL-17RA-Fc captured on protein G chip, VH as analyte
Protocol: Binding kinetics of anti-IL-17RA VH antibodies were measured on a BIAcore® T200 instrument. For IL-17RA, first a protein G chip was prepared by diluting protein G to 20 ug/ml in acetate buffer, pH 4 (BIAcore®, cat# BR-100-49) and then coupled 1200 RU to a CM5 Series S chip using amine coupling chemistry. This surface was then used to capture IL-17RA Fc fusion protein from solution: IL-17RA at 10 ug/ml in HBS injected for 10 seconds at 30 ul/min flow rate would capture approximately 100-150 RU of IL-17RA onto the protein G surface.
Binding kinetics of anti-IL-17RA VH antibodies were determined by single-cycle kinetics. VH antibodies were prepared in dilution series (typically 1:3 dilution series starting with 100 nM VH at the highest concentration), and then injected over the antigen coated surfaces and also a blank surface, starting with the lowest concentration of VH and then working progressively up to the highest concentration. VH binding kinetics were then determined from the (blank subtracted) sensorgram traces using 1:1 binding models and BIAevaluation software.

[4] = biological target: T1, recombinant human IL-17RA Fc fusion …; assay: receptor/ligand biochemical inhibition ELISA: VH competes with 1 nM IL-17A for coated IL-17RA-Fc; remark: listed apart in the source
Protocol: as §1

[5] = biological target: T2, human IL-17RA on HT1080 cells; assay: cell-based or functional assay; remark: listed apart in the source
[6] = biological target: T2, human IL-17RA on HT1080 cells; assay: cell-based or functional assay; remark: listed apart in the source
[7] = biological target: T1, recombinant human IL-17RA Fc fusion …; assay: IL-17RA ligand inhibition ELISA (FIG. 10A): VH competes with IL-17A for coated IL-17RA-Fc
Protocol: as §1

IC50 [1]: 3.7 nM
IC50 (nM), cell-based assay [2]: 363 nM
Kd [3]: 7 nM
IC50 [4]: 3.7 nM
Cell assay IC50 [5]: 280 nM
Cell assay IC50 [6]: 280 nM
IC50 [7]: 4 nM
B1: VH clone 2.1 (VHH)
VHH: QVQLVQSGAEVKKPGASVKVSCKASGYPFTSYDINWVRQATGQSLEWMGWMNPNSGDTVYAQKFQGRVTMTRNTSISTAYMELSSLRSEDTAVYFCARGRRDDWKNNYWGQGTLVTVSS
notes: Human VH single domain antibody, no light chain; Parent clone of family 2; also called VH 2.1
